Assay results as given in the RNAGym collection of RNA variant scans (doi:10.1073/pnas.2313332121).
Fewer inactive variants are shown than the library holds.

B1: TPR 5TU (parent)
chain: GGAUCUUCUCGAUCUAACAAAAAAGACAAAUCUGCCACAAAGCUUGAGAGCAUCUUCGGAUGCAGAGGCGGCAGCCUUCGGUGGCGCGAUAGCGCCAACGUUCUCAACUAUGACACGCAAAACGCGUGCUCCGUUGAAUGGAGUUUAUCAUG

Variants of: B1
Test: polymerase ribozyme fitness, log enrichment relative to wild type (log ratio); higher = more active; in vitro selection for triplet polymerase activity
Method in brief: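 Mutant libraries of each subunit of a heterodimeric triplet polymerase ribozyme were built by PCR and transcribed. Each library went through one round of in vitro selection in triplicate: annealing with biotinylated primer, partner subunit and triplets, frozen incubation at −7 °C, gel excision of extended constructs, streptavidin-bead capture and RT-PCR. Input and output libraries were Illumina-sequenced; only genotypes with ≥10 input reads and ≥1 read per output were kept. Fitness is log2(genotype enrichment/wild-type enrichment), using inverse-variance-weighted replicate averages.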

Variant	polymerase ribozyme fitness (log ratio)
A52G G59C C99U	-1.42
U53A C79G C108U G136A U144G	≤ -4.2
A52G C93U U101C C105U	-2.43
U53A U55G C85A C95U A121C	≤ -4.2
U53C U55C C105U	-1.88
U53G C123A G126C	-1.32
U53A G94U	-3.17
A52G C85U G92A C96A	≤ -4.2
C54U C76A C96A U127C G136A	-3.34
U53A A64G C103G G124A	≤ -4.2
U53A G67C C85U U109G A115U	≤ -4.2
U53A C57A	-0.577
U53A C57U	-1.2
C54U C87A A89G C96U A121U A142C	≤ -4.2
U53A C54G G67C C118U U130A	≤ -4.2
C54U G58A C93U	-1.1
U53A C93A C95G	≤ -4.2
C54A G71A G88C A110G	≤ -4.2
U53A G68U A73G U134G A138C	≤ -4.2
U53A C75U C103U	-3.14
C54U C85U A98G U134A	-3.35
U53A A91G	-3.09
U53G C85G	-3.69
U53A G86U A142U	≤ -4.2

Variant	polymerase ribozyme fitness (log ratio)
C54U G141A	-0.888
C54A G83A C99U	-3.7
U55A A60C C85U A89G	-4.15
A52U U148C	≤ -4.2
A52G G58U G84U C96A C99U	-4.02
U53A G65C C85G A137U G140C	≤ -4.2
C54U A97G C99G U135G	-3.75
A52G C63G	-0.179
U53A U78C U134G	-2.35
A52G U56A A64C G92U	≤ -4.2
C54U G59C A64C G94U A120G	≤ -4.2
A52G C131A	-1.46
A52U C76U A150U	-1.19
A52G C87U C116U C149G	-3.76
A52G C69U C93U	-2.89
U53A C54A G58C A64C G126A U135C A138C	≤ -4.2
A52U C118U	-1.14
A52G U53A G83U	-2.28
C54U C103U C123A U148G	≤ -4.2
C54A G86U A97G	≤ -4.2
C54A G58U C99A U145A	-2.04
A52G C85A	-2.19
U53A G92C	-3.01
U53A G92U	-1.74

Variant	polymerase ribozyme fitness (log ratio)
C54U A73C G94U C116G C125A U134A	≤ -4.2
A52G G84A C99U A120G	-1.11
U53A C54A G59U A64U C93G A137C	≤ -4.2
C54U U56A C93U G133U	-4.06
A52G U55C C105G U109A	-1.97
U53A C76U A142G	-2.87
C54U U55G G80U A91G A98C	-3.9
C54U C85U	-0.491
C54U C85A A119U U130G	-3.83
A52U U53A G58U	-0.762
U53A G74A U145G	≤ -4.2
A52U U82G	-1.46
C54G G80C A89G C93A	≤ -4.2
C54G U55A G84A	-1.93
C54A C85U C125G	-1.96
A52U A107C	≤ -4.2
A52U G86C G88A C105A G141U	≤ -4.2
C54A U82A U134A U146C	-3.03
A52U C57G G58A C95U C123U G126U A138U	≤ -4.2
C54A G83C C85A	≤ -4.2
C54G G86A C129G	-3.8
U53A G84U C103G U148G	≤ -4.2
A52U G86C A91C U139C	≤ -4.2
C54U C75U	-0.0882

Variant	polymerase ribozyme fitness (log ratio)
U53A A89C	-0.605
U53A C85A A106G U144G	-2.88
C54A G143C	-2.81
C54A C95A	-1.25
A52G G58A A66U U77G G94A C99G A107G	≤ -4.2
A52U C57A C63U G94U A150G	≤ -4.2
A52U G71C G92A C96G	≤ -4.2
U53G U56A A89G G94A A121G G141U G143A	≤ -4.2
U53A C85U C105G	≤ -4.2
A52U C87U	-2.81
C54A C116U G143U	-3.09
U53G U55G C75U C76U G83A U135A	≤ -4.2
C54G G58A U78G C108A G126U	≤ -4.2
C54G C105U	-1.24
U53G C54G C57U C95U	-4.07
A52G G80U	-3.34
U53A A60U U77C G80C A91G A142C	≤ -4.2
U53C C54U	-1.25
A52G G83C C129A	-2.88
U53A G92C A137G	-3.41
C54A G80C C114A U127G G143C	≤ -4.2
C54U C76U C87U U127A U139C A142U C149G	≤ -4.2
A52G C85U U104G	-0.901
C54U C57U G83C A106C U135C	≤ -4.2

Variant	polymerase ribozyme fitness (log ratio)
C54A G81A	-1.07
U53C A122G	-0.671
A52G G58C	0.885
C54G G81A C95U	-2.33
C54A U56A C118U	-2.14
A52U C85G C123A G140A	≤ -4.2
C54G A66U A137G	≤ -4.2
U53A U78A C85U U102C	≤ -4.2
C54A C116U	-0.368
C54G G86U U135A U139A	≤ -4.2
C54A U90G	≤ -4.2
C54U C57G G94C U134A G136C	≤ -4.2
C54G G58A A89U A98G G133C	-2.63
U53A A73U C85U G124U U134C U135C	≤ -4.2
A52G C85G G141A	-1.37
A52G G84U C118G G128A U144G U145A	≤ -4.2
A52U A89C	-3.05
U53G U61A C85U G94U A97U G152A	≤ -4.2
C54U G59A A106G	0.342
U53G A91G	-3.94
C54A A89G	-2.13
C54U G86U A150U	-0.319
A52U G84A G117C	-0.726
U53A A91C C96U	≤ -4.2

Variant	polymerase ribozyme fitness (log ratio)
U55A	-0.301
U53A U55A C129U	-3.06
C54U U55A A98U U144A	-1.24
C54U U82A	-0.0444
C54A A89G U90A C99G	≤ -4.2
C54A U77G C85U C93G G117C G136A	≤ -4.2
U53A U151G	≤ -4.2
U53C G94A A97G	-2.46
C54A U56A G67U C85A G88A U101G G141C	≤ -4.2
C54A C123G	-1.63
C54A C123U	-0.754
U53A G86U	-2.14
U53A G86C	-3.25
U53A U109G C116A G136C U144C	-4.07
C54U G59A C76A C85U	0.107
C54G U55A G94U A98C A150G	-3.84
C54A C85U C108U	≤ -4.2
A52G C105A	-0.578
C54G C96U U111G G133U A137G	≤ -4.2
C54G C87G C99G	≤ -4.2
C54U C118U U145A	-0.457
C54G C87U A122G U145C	-1.82
U53G G136C	-4.09
A52U C54U U55A C57G A73G G83C	≤ -4.2

Variant	polymerase ribozyme fitness (log ratio)
A52U G140C	≤ -4.2
U53A C118U	-1.08
C54G U56G G92A	≤ -4.2
C54U C76G A89C A91G G94U U146G	≤ -4.2
C54U C69A	-3.63
A52G G74A C87U C131U A142G	-3.99
C54A C87U C93G U134G U135A	≤ -4.2
C54G C69A A73G G86U C105A C118A C125A U148A	≤ -4.2
A52G C85A A89G	-3.57
A52G G65A U145A	-1.38
U53A U55G A64U C75U A91C C116U U144A	≤ -4.2
A52G U55A U90G C96U C103A C131G	≤ -4.2
U53A C85A A89C	-3.89
A52U G81U C96U C114A A142U	-3.93
U53A C69G G83A G117U U145C	-3.13
U53G G59C A147C	-0.875
U53A A91G U144G	-2.54
A52G G83C	-2.18
U53A G58A C76U C103G A150U	≤ -4.2
A52G G67A G126U	≤ -4.2
A52U U55G C87A A119U	≤ -4.2
C54G A64G G94A G100U C105A	≤ -4.2
A52G U53A C85A U111G	≤ -4.2
